# According to article PMC10863982 (2024):
# Target: T1, GST-CTU2 (Arabidopsis thaliana (Mouse-ear cress), UniProt O65628)
# T1 chain: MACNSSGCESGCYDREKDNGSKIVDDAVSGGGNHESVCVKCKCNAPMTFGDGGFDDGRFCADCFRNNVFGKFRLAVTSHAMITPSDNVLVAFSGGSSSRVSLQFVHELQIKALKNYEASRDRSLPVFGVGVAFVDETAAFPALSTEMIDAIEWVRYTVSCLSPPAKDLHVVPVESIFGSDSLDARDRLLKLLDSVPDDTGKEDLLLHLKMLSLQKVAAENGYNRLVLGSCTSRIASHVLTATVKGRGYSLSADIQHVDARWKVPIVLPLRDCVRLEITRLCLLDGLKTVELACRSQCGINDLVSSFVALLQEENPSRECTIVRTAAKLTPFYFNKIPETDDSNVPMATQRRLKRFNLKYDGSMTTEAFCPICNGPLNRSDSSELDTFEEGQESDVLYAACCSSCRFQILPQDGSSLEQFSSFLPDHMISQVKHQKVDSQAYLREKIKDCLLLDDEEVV
# Test: GST pull-down
binder,measurement,value
ROL5-His (protein) MEAKNKKAVASRLCCLCNLRRPVLKRPKTLQQICRECFYEVFEEEIHQVIVQNRLFKSGERVAIGASGGKDSTVLAYVLSELNRRHNYGLDLFLLSIDEGITGYRDDSLETVKRNEVQYGLPLKIVSYKDLYGWTMDEIVKMIGLKNNCTFCGVFRRQALDRGAALLKVEKLVTGHNADDIAETVLLNILRGDIARLSRCTSITTGEDGPIPRCKPFKYTYEKEIVMYAYFKKLDYFSTECIYSPNAYRGFAREFIKDLERIRPRAILDIIKSGEDFRIATTTKMPEQGTCERCGYISSQKWCKACVLLEGLNRGLPKMGIGRPRGVNGDHNKETKKPGSVAKSIESKQCGSLDF,binding result,binds
